The source of these data is IntAct's records for PubMed 7536190.

B1: Tumor necrosis factor receptor superfamily member 6 (Mus musculus), P25446 (parent)
chain: MLWIWAVLPLVLAGSQLRVHTQGTNSISESLKLRRRVRETDKNCSEGLYQGGPFCCQPCQPGKKKVEDCKMNGGTPTCAPCTEGKEYMDKNHYADKCRRCTLCDEEHGLEVETNCTLTQNTKCKCKPDFYCDSPGCEHCVRCASCEHGTLEPCTATSNTNCRKQSPRNRLWLLTILVLLIPLVFIYRKYRKRKCWKRRQDDPESRTSSRETIPMNASNLSLSKYIPRIAEDMTIQEAKKFARENNIKEGKIDEIMHDSIQDTAEQKVQLLLCWYQSHGKSDAYQDLIKGLKKAECRRTLDKFQDMVQKDLGKSTPDTGNENEGQCLE

The variants in one assay derive from B1. The note with it: with fadd_human FADD.
As to I225D, the “effect of a mutation on the interaction” value is given as “decreasing interaction”.

The variants in a further assay derive from B1. The note with it: with tnr6_human FAS.
For I225D, the “effect of a mutation on the interaction” value was “decreasing interaction”.
